According to patent publication US20220362357A1, “Synergistic Combinations of Amino Acid Depletion Agent Sensitizers (AADAS) and Amino Acid Depletion Agents (AADA), and Therapeutic Methods of Use Thereof” (STICHTING RADBOUD UNIVERSITAIR MEDISCH CENTRUM, priority 2018, published 2022):

System: PDX m4136
Assay: PDX ALL cells co-cultured on hTERT MSCs, ASNase x ibrutinib dilution matrix, microscopy
Type: cell-based, human
Conditions: m4136 (3 d), ibrutinib B0=0 to B9=100
Protocol: After 2-4 months these mice developed full blown leukemia with an immunophenotype and genetic composition that in the large majority of cases is identical to the original material at the time of injection.
Briefly, hTERT immortalized MSCs were seeded in either a 384 wells format (microscopy) or a 96 wells format (7AAD staining) and allowed to settle for 24 hours prior to the addition of ALL xenografts. […] After 3 and 7 days of incubation, cell death was analyzed using microscopy using live cells staining or flowcytometry using 7AAD to discriminate between live or dead cells.

B1: ASNase: native E. coli ASNase (NCBI WP_000394140.1), used in the in vitro studies (protein, UniProt P00805 23-348, looked up)
L-asparaginase 2: LPNITILATGGTIAGGGDSATKSNYTVGKVGVENLVNAVPQLKDIANVKGEQVVNIGSQDMNDNVWLTLAKKINTDCDKTDGFVITHGTDTMEETAYFLDLTVKCDKPVVMVGAMRPSTSMSADGPFNLYNAVVTAADKASANRGVLVVMNDTVLDGRDVTKTNTTDVATFKSVNYGPLGYIHNGKIDYQRTPARKHTSDTPFDVSKLNELPKVGIVYNYANASDLPAKALVDAGYDGIVSAGVGNGNLYKSVFDTLATAAKTGTAVVRSSRVPTGATTQDAEVDDAKYGFVASGTLNPQKARVLLQLALTQTKDPQQIQQIFNQY
In the case of B1, the “live cells by automated microscopy (table names no quantity)” value (“live cells … (table names no quantity)” for short) (ASNase A1=0.01) is reported as 1992, the “live cells … (table names no quantity)” value (ASNase A2=0.03) is reported as 1998 and the “live cells … (table names no quantity)” value (ASNase A3=0.1) is reported as 1980. For the same molecule, the “live cells … (table names no quantity)” value (ASNase A4=0.3) was 1892, the “live cells … (table names no quantity)” value (ASNase A5=1) was 2157 and the “live cells … (table names no quantity)” value (ASNase A6=3) was 2652. The “live cells … (table names no quantity)” value (ASNase A7=10) was 2136, the “live cells … (table names no quantity)” value (ASNase A8=32) was 2172 and the “live cells … (table names no quantity)” value (ASNase A9 (A=100)) was 39.
